The record followed here is patent US20260176653.

In this series the target is T1, Bcl-TEV IRES iADAR (tandem-dimer MCP, BAD peptide fused to the N-terminus of ADAR2-DD(E488Q & F697Y), TEV cut site, Bcl-xL, TagBFP).
T1 chain: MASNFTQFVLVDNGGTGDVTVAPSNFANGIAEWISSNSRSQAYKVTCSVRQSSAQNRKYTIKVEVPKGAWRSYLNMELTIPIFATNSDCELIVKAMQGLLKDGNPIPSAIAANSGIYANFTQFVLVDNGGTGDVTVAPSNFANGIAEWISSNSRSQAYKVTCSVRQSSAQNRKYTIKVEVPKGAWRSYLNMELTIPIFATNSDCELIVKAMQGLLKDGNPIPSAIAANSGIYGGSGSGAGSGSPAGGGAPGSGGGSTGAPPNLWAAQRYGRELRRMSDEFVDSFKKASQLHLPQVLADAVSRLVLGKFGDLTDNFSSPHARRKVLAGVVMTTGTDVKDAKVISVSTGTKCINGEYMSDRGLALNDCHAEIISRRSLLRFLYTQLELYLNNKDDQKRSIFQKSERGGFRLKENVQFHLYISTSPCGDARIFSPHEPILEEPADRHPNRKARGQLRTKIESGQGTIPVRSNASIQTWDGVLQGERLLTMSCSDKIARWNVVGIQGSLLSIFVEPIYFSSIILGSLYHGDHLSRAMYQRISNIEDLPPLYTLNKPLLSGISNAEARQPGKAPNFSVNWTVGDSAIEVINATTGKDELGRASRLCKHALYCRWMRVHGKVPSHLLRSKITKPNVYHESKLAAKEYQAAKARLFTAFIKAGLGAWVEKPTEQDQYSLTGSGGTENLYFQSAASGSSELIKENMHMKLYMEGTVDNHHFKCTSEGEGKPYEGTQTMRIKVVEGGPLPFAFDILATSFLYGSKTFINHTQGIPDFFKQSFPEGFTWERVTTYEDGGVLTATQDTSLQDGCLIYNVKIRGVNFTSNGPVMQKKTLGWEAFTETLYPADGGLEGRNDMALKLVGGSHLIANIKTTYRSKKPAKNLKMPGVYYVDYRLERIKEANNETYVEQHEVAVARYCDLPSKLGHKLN

B1: TEV Protease (protein)
chain: MGESLFKGPRDYNPISSTICHLTNESDGHTTSLYGIGFGPFIITNKHLFRRNNGTLLVQSLHGVFKVKNTTTLQQHLIDGRDMIIIRMPKDFPPFPQKLKFREPQREERICLVTTNFQTKSMSSMVSDTSCTFPSSDGIFWKHWIQTKDGQCGSPLVSTRDGFIVGIHSASNFTNTNNYFTSVPKNFMELLTNQEAQQWVSGWRLNADSVLWGGHKVFMVKPEEPFQPVKEATQL
B1: the “fold change of the mean RFU (mNeonGreen-to-mCherry), Bcl-TEV IRES iADAR co-transfected with TEV protease” value turned out to be 17× for TEV protease.
